Experiment [1] addresses T1, Human MET protein on the cell surface (human, UniProt P08581 25-1390). Nature of the experiment: cell-based or functional assay.
Experiment [2] deals with T2, Human HER3 protein on the cell surface (human, UniProt P21860 20-1342). Nature of the experiment: cell-based or functional assay.
Experiment [3] deals with T1, Human MET protein on the cell surface. Nature of the experiment: FACS on NCI-H1703 cells (MET single-positive).
Experiment [4] concerns the target T2, Human HER3 protein on the cell surface. Nature of the experiment: cell-based or functional assay. The source holds these as a separate data set.
Experiment [5] has as its target T3, His-tagged human HER3 antigen (human, UniProt P21860 20-643).
T3 construct: Soluble antigen used as analyte in SPR; not shown: His tag
Nature of the experiment: SPR, Biacore 8K; antibody captured, His-tagged human HER3 antigen 6.25-400 nM as analyte; 1:1 Langmuir. On the technique in general: In SPR one partner is held on a chip, and binding of the other changes the refractive index at the surface.

For experiment [6], the target named is T2, Human HER3 protein on the cell surface. Nature of the experiment: FACS on MDA-MB-453 cells (HER3 single-positive).
Experiment [7] shares this target. Nature of the experiment: cell-based or functional assay. This is another data set of the same source.
For experiment [8] the target is unchanged. Nature of the experiment: FACS on HCC827 Osimertinib-resistant cells (HER3/MET double-positive).
Experiment [9] concerns the target T4, Human HER3 and MET proteins together on HER3/MET double-positive cells (human, UniProt P21860 20-1342; P08581 25-1390). Nature of the experiment: cell-based or functional assay.
The target of experiment [10] is T4, Human HER3 and MET proteins together on …. Nature of the experiment: cell-based or functional assay. This is another data set of the same source.
For experiment [11] the target is unchanged. Nature of the experiment: cell-based or functional assay. The source holds these as a separate data set.
The target is the same in experiment [12]. Nature of the experiment: FACS on HCC827 Osimertinib-resistant cells (HER3/MET double-positive).
Experiment [13] concerns the target T5, His-tagged human MET antigen (human, UniProt P08581 25-932).
T5 construct: Soluble antigen used as analyte in SPR; not shown: His tag
Nature of the experiment: SPR, Biacore 8K, protein A chip; ADC captured, His-tagged antigen 6.25-400 nM as analyte; 1:1 Langmuir.

In experiment [14] the target is T3, His-tagged human HER3 antigen. The experiment is described as above.

Where two headings read alike, the source gives them in different places.

As usually defined, the Kd is a measure of binding affinity in units of concentration. A higher Kd goes with lower affinity. A word on the koff: it is a measure of how fast the partners let go of each other. The term kon denotes the second-order rate constant of association. What is called EC50 is the concentration at which the effect is half-maximal.

T1 sequence (P08581 25-1390): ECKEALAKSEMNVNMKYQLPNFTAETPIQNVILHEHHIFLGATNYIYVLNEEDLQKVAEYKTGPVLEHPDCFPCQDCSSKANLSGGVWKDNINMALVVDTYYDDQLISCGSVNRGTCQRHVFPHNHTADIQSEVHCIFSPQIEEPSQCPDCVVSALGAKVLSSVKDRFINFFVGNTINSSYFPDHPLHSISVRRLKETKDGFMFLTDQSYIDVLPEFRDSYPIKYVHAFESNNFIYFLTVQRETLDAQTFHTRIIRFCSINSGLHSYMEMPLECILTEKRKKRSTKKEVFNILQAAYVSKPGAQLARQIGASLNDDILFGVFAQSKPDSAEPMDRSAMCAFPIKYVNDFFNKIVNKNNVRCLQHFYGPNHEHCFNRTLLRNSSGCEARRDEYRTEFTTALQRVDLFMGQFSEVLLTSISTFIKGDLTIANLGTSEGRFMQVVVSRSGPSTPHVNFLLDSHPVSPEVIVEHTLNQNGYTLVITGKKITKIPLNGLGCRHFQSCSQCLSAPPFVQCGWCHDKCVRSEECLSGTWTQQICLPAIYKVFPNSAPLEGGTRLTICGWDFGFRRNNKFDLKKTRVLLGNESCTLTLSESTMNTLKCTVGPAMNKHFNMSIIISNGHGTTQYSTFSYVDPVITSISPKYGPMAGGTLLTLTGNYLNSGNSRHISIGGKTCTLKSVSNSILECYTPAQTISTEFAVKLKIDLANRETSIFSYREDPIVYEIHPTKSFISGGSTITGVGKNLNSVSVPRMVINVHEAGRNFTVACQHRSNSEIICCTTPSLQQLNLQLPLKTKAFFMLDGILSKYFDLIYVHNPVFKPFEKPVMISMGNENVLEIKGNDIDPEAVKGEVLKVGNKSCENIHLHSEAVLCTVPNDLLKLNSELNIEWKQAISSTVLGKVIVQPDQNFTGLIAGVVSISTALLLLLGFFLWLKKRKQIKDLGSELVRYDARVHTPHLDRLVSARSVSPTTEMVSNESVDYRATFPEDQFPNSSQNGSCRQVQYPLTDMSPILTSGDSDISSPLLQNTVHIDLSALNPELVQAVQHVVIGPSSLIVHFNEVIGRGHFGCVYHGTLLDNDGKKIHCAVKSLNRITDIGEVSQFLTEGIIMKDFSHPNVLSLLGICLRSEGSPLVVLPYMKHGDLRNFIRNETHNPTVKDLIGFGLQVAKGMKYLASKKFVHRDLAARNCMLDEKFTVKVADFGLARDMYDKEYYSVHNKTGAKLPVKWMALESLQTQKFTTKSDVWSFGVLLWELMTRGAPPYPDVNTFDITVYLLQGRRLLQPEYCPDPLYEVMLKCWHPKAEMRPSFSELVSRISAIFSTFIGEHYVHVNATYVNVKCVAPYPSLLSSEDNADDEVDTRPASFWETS
T5 sequence (P08581 25-932 limits assumed): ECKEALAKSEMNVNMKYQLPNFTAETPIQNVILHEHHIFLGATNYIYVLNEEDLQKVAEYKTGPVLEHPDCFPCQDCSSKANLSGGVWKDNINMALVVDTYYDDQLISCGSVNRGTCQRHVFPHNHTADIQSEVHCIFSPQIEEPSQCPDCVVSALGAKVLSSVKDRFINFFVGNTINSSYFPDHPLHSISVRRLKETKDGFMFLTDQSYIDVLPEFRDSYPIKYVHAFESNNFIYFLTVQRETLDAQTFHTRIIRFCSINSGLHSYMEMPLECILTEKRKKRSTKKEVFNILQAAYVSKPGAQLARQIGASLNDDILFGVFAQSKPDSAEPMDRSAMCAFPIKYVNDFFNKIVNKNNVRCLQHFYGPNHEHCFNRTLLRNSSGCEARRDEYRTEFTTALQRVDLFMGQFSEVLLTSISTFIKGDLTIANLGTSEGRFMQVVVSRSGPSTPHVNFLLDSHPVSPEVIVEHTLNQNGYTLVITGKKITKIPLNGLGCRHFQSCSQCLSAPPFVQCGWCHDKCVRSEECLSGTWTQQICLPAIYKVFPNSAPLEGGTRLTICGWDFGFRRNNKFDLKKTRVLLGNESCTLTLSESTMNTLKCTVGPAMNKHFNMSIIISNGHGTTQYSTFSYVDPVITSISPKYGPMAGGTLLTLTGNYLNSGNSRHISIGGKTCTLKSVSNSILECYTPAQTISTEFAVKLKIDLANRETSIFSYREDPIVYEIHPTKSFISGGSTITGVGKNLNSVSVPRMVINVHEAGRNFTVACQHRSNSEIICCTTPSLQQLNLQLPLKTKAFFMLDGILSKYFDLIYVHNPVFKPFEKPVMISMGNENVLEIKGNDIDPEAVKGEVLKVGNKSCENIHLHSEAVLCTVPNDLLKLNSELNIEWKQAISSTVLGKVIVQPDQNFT

B1: Anti-HER3 antibody A (antibody, human IgG1, kappa, V domains shown)
VH: QVQLVQSGGGLVQPGRSLRLSCAASGFTFDDYAMHWVRQAPGKGLEWVSGISWNSGSIGYADSVKGRFTISRDNAKNSLYLQMNSLRAEDTALYYCAKEGLPGLDYWGQGTLVTVSS
VL: DIQMTQSPSSLSASIGDRATITCRASQHVGTYLNWYQQKPGKTPKLLISGAANLQSGVPSRFSGSGSGTDFTLTISSLQPEDFATYYCQQSYNTPPFSFGQGTKVEIKR
For B1, in experiment [1], the “Minimum cell viability (%)” value turned out to be 77.8%. In [2], the “Endocytosis ratio at 0 h (FACS)” value turned out to be 0%, the “Endocytosis ratio at 0.5 h (FACS)” value was 55.5%, the “Endocytosis ratio at 2 h (FACS)” value came to 80% and the “Endocytosis ratio at 6 h (FACS)” value turned out to be 82.2%. The molecule further had a Maximum fluorescence value in experiment [3] of 81. Further, the “Minimum cell viability (%)” value in experiment [4] amounted to 63.8%. In addition, in [5], binding was characterised by a dissociation constant (Kd) of 14.5 nM, the koff was 0.0103 s⁻¹ and the kon was 707000 M⁻¹ s⁻¹. In [6], this molecule gave an EC50 of 0.48 nM and a Maximum fluorescence value of 1860. In addition, the “Minimum cell viability (%)” value in experiment [7] amounted to 28.5%. In experiment [8], the 50% effective concentration (EC50) was 2.06 nM and the Maximum fluorescence value is 1020.

B2: Naked antibody of the control antibody U3-1402 (U3-1402 Ab) (antibody, human IgG1, kappa, V domains shown)
VH: QVQLQQWGAGLLKPSETLSLTCAVYGGSFSGYYWSWIRQPPGKGLEWIGEINHSGSTNYNPSLKSRVTISVETSKNQFSLKLSSVTAADTAVYYCARDKWTWYFDLWGRGTLVTVSS
VL: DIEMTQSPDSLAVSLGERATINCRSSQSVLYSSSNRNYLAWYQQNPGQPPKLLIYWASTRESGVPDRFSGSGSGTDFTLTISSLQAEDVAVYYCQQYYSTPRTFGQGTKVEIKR
notes: Anti-HER3 control
For the molecule B2, the results for the “Minimum cell viability (%)” value in experiment [1], in [4] and in experiment [7] were 72.9%, 73.6% and 63.9%, respectively. Besides, the figures for the Maximum fluorescence value in [3], in [6] and in experiment [8] were 90, 1990 and 1240, respectively. Besides, the EC50 amounted to 0.25 nM in experiment [6] and 0.46 nM in experiment [8].

B3: Anti-HER3/MET bispecific antibody 2232-01 (A13-A) (bispecific antibody, human IgG1, kappa)
heavy 1: not shown
light 1: DIQMTQSPSSVSASVGDRVTITCRASQGINTWLAWYQQKPGKAPKLLIYAASSLKSGVPSRFSGSGSGADFTLTISSLQPEDFATYYCQQANSFPLTFGGGTKVEIKGGGGSGIPPKIECLPIDISIDEGKVLTVASAFTGEPTPEVTWSTGGRKIHSQEQGRFHIENTDDSTTLTIKDVQKQDGGLYTLTLRNEFGSDSATVNIHIRSI
heavy 2: QVQLVQSGGGLVQPGRSLRLSCAASGFTFDDYAMHWVRQAPGKGLEWVSGISWNSGSIGYADSVKGRFTISRDNAKNSLYLQMNSLRAEDTALYYCAKEGLPGLDYWGQGTLVTVSSASTKGPSVFPLAPSSKSTSGGTAALGCLVKDYFPEPVTVSWNSGALTSGVHTFPAVLQSSGLYSLSSVVTVPSSSLGTQTYICNVNHKPSNTKVDKKVEPKSCDKTHTCPPCPAPELLGGPSVFLFPPKPKDTLMISRTPEVTCVVVDVSHEDPEVKFNWYVDGVEVHNAKTKPREEQYNSTYRVVSVLTVLHQDWLNGKEYKCKVSNKALPAPIEKTISKAKGQPREPQVCTLPPSREEMTKNQVSLSCAVKGFYPSDIAVEWESNGQPENNYKTTPPVLDSDGSFFLVSKLTVDKSRWQQGNVFSCSVMHEALHNHYTQKSLSLSPGK
light 2: DIQMTQSPSSLSASIGDRATITCRASQHVGTYLNWYQQKPGKTPKLLISGAANLQSGVPSRFSGSGSGTDFTLTISSLQPEDFATYYCQQSYNTPPFSFGQGTKVEIKRTVAAPSVFIFPPSDEQLKSGTASVVCLLNNFYPREAKVQWKVDNALQSGNSQESVTEQDSKDSTYSLSSTLTLSKADYEKHKVYACEVTHQGLSSPVTKSFNRGEC
notes: Four chains: H1 = A13 VH-GGGGS-Obscurin-O chain-IgG1 Fc1 (S354C/T366W); L1 = A13 VL-GGGGS-Titin-T chain; H2 = antibody A VH-CH1-IgG1 Fc2 (Y349C/T366S/L368A/Y407V); L2 = antibody A VL-CL
In the case of B3, the “Minimum cell viability (%)” value in [1] came to 0.6%; in [10], 12.4%; in [11] it was 24.7%; in experiment [7] it was 21.7%. Besides, the “Endocytosis ratio at 0 h (FACS)” value in experiment [9] is 0%. In experiment [9], the “Endocytosis ratio at 0.5 h (FACS)” value stood at 67.9%. For the same molecule, in experiment [9], the “Endocytosis ratio at 2 h (FACS)” value is 83.2%. Besides, the “Endocytosis ratio at 6 h (FACS)” value in experiment [9] stood at 84.1%. Also, the EC50 came out at 1.03 nM in [3], 2.72 nM in experiment [6] and 0.52 nM in experiment [12]. In addition, the Maximum fluorescence value in [3] turned out to be 2430; in [6], 1950; in [12], 2470.

B4: Anti-HER3/MET antibody-drug conjugate ADC-5 (bispecific antibody, human IgG1, kappa)
heavy 1: not shown
light 1: DIQMTQSPSSVSASVGDRVTITCRASQGISTWLAWYQQKPGKAPKLLIYAASSLKSGVPSRFSGSGSGTDFTLTISSLQPEDFATYYCQQANSFPLTFGGGTKVEIKGGGGSGIPPKIECLPIDISIDEGKVLTVASAFTGEPTPEVTWSTGGRKIHSQEQGRFHIENTDDSTTLTIKDVQKQDGGLYTLTLRNEFGSDSATVNIHIRSI
heavy 2: QVQLVQSGGGLVQPGRSLRLSCAASGFTFDDYAMHWVRQAPGKGLEWVSGISWNSGSIGYADSVKGRFTISRDNAKNSLYLQMNSLRAEDTALYYCAKEGLPGLDYWGQGTLVTVSSASTKGPSVFPLAPSSKSTSGGTAALGCLVKDYFPEPVTVSWNSGALTSGVHTFPAVLQSSGLYSLSSVVTVPSSSLGTQTYICNVNHKPSNTKVDKKVEPKSCDKTHTCPPCPAPELLGGPSVFLFPPKPKDTLMISRTPEVTCVVVDVSHEDPEVKFNWYVDGVEVHNAKTKPREEQYNSTYRVVSVLTVLHQDWLNGKEYKCKVSNKALPAPIEKTISKAKGQPREPQVCTLPPSREEMTKNQVSLSCAVKGFYPSDIAVEWESNGQPENNYKTTPPVLDSDGSFFLVSKLTVDKSRWQQGNVFSCSVMHEALHNHYTQKSLSLSPGK
light 2: DIQMTQSPSSLSASIGDRATITCRASQHVGTYLNWYQQKPGKTPKLLISGAANLQSGVPSRFSGSGSGTDFTLTISSLQPEDFATYYCQQSYNVPPFSFGQGTKVEIKRTVAAPSVFIFPPSDEQLKSGTASVVCLLNNFYPREAKVQWKVDNALQSGNSQESVTEQDSKDSTYSLSSTLTLSKADYEKHKVYACEVTHQGLSSPVTKSFNRGEC
modifications: compound 9-A on reduced cysteines, positions not given; compound 9-A (exatecan derivative linker-drug) on reduced cysteines, positions not given; average DAR 5.87 for the whole molecule
For the molecule B4, in [13], binding was characterised by a dissociation constant (Kd) of 13.1 nM, the koff came to 0.000872 s⁻¹ and the on-rate constant (kon) stood at 66500 M⁻¹ s⁻¹. In experiment [14], this molecule showed a dissociation constant (Kd) of 14.3 nM, a koff of 0.00721 s⁻¹ and a kon of 505000 M⁻¹ s⁻¹.
